Measured values: patent US20150086557A1, “NOVEL INTEGRIN alpha9 beta1 LIGAND AND USES THEREOF” (OSAKA UNIVERSITY, priority 2012, published 2015)
Where no end group is shown, it is not given here.

Columns and labels:
integrin α9β1 = molecular target: T1, integrin α9β1 (Homo sapiens, UniProt P05556+Q13797); test: Direct integrin binding assay with recombinant integrin α9β1; settings: for binding of integrin α9β1 to smaller segments of D2628-S2664: 1 mM MnCl2, FIG. 13; for binding of recombinant integrin α9β1 to coated protein: 1 mM MnCl2, FIG. 7
T1 construct: A cDNA encoding the extracellular region of human integrin α9; An expression vector for the extracellular region of integrin β1; ACID coiled-coil (Velcro) peptide; FLAG; BASE coiled-coil (Velcro) peptide; made in house; host or cells: FreeStyle 293 Expression System (293-F cells)
T1 sequence (Q13797 30-981 limits assumed): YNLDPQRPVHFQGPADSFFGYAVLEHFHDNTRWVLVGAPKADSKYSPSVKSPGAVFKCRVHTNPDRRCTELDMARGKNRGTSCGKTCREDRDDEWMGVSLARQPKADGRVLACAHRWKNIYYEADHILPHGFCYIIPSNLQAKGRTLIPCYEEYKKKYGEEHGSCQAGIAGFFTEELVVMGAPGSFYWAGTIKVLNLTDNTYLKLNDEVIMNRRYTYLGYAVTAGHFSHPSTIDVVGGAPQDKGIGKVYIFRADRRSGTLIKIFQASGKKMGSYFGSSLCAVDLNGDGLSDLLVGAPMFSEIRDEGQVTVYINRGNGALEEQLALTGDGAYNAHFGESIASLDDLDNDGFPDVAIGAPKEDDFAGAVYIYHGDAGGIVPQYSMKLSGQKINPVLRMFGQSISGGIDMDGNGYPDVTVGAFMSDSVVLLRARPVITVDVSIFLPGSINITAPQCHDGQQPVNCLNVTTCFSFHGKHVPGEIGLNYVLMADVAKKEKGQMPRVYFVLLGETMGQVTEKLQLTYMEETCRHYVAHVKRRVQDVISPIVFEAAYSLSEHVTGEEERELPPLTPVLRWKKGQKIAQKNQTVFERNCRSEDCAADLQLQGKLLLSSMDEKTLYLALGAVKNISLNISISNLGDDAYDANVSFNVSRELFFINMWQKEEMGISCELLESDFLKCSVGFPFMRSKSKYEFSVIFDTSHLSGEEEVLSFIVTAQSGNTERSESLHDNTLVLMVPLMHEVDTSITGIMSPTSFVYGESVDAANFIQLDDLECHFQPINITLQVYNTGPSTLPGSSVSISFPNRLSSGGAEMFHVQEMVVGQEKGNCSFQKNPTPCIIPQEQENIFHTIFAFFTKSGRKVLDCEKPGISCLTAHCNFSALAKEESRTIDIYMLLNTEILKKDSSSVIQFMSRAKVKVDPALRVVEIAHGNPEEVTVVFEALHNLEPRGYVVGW
T1 sequence (P05556 21-728 limits assumed): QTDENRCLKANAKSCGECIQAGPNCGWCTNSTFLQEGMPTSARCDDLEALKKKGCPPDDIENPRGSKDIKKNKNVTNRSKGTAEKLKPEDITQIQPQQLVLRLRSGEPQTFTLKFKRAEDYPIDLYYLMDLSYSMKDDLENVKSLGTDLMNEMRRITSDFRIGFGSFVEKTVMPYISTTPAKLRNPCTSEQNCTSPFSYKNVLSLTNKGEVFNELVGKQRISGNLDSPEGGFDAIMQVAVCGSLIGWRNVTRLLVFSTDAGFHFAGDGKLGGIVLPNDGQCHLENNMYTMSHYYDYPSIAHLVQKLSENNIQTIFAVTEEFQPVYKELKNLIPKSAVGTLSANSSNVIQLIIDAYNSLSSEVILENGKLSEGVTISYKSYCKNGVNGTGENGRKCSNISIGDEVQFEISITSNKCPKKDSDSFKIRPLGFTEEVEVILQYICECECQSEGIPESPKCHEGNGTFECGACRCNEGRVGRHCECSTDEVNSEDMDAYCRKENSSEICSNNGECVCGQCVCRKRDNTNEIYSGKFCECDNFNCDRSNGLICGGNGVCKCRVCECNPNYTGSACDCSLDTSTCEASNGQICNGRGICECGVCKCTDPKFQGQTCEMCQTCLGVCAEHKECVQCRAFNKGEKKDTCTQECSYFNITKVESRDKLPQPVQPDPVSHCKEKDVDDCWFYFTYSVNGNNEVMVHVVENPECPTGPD
Description: A cDNA encoding the extracellular region of human integrin α9 was amplified by RT-PCR from total RNA extracted from RD cells and cloned into pBluescript KS(+). After verification of the nucleotide sequence, an error-free cDNA fragment was inserted into pcDNA-ACID-FLAG (Nishiuchi, R., Takagi, J., Hayashi, M., Ido, H., Yagi, Y., Sanzen, N., Tsuji, T., Yamada, M., and Sekiguchi, K. (2006) Matrix Biol. 25, 189-197). An expression vector for the extracellular region of integrin β1 was provided by Dr. Junichi Takagi (Takagi, J., Erickson, H. P., and Springer, T. A. (2001) Nat. Struct. Biol. 8, 412-416). The recombinant integrins were produced using the Freestyle™ 293 Expression System (Invitrogen) and purified as described in the above-mentioned publication Matrix Biol. 25, 189-197, (2006).
An integrin binding assay was performed as described in the above-mentioned publication Matrix Biol. 25, […], (2006). In some experiments, integrins were preincubated with synthetic peptides at various concentrations to evaluate the inhibitory activities of the synthetic peptides. The apparent dissociation constants were determined as described in Nishiuchi, R., Murayama, O., Fujiwara, H., Gu, J., Kawakami. T., Aimoto, S., Wada, Y., and Sekiguchi, K. (2003) J. Biochem, 134, 497-504.
To corroborate the role of integrin α9β1 as an adhesion receptor for polydom, a direct integrin binding assay was performed, using recombinant integrin α9β1. Plates were coated with full-length polydom, pol-N, pol-C, plasma fibronectin (pFN) or cellular fibronectin (cFN), and recombinant integrin α9β1 was added and allowed to bind thereto in the presence of 1 mM MnCl2 or 10 mM EDTA. BSA was used as a negative control. The bound integrin was quantified using a biotinylated anti-Velcro antibody and HRP-conjugated streptavidin.
Integrin α9β1 is known to bind to the third fibronectin type III domain of tenascin-C (TNfn3) and the osteopontin N-terminal half (OPN-Nhalf). These integrin α9β1 ligands were recombinantly expressed as GST fusion proteins and then purified. In the GST fusion proteins, the RGD cell-adhesive motifs were replaced with RAA to nullify their abilities to interact with RGD-binding integrins, such as those containing the αv subunit, Microtiter plates were coated with pol-C (10 nM), GST-TNfn3-RAA (100 nM) or GST-OPN-Nhalf-RAA (100 nM), and integrin α9β1 was added and allowed to bind thereto in the presence of 1 mM MnCl2.
To locate the integrin α9β1-binding site within polydom, a series of five N-terminal deletion mutants of polydom (pol-C, ΔEGF6, ΔPTX, ΔCCP20 and ΔCCP21; see FIG. 9) were constructed. Their binding activities for integrin α9β1 were evaluated in the presence of 1 mM MnCl2 or 10 mM EDTA using microtiter plates coated with these recombinant proteins (10 nM).
Among the 34 CCP domains within polydom, CCP21 is unique because it contains about 40 extra amino acids as compared with the other CCP domains. An assay to examine whether this extra region (hereinafter referred to as “extra segment”) within CCP21 is involved in binding to integrin α9β1 was performed, Microtiter plates were coated with a GST-CCP21 fusion protein, a D2628-S2664 deletion mutant of the GST-CCP21 fusion protein (CCP21ΔD2628-S2664), D2628-S2664 alone (see FIG. 11), pol-C or GST alone, and integrin α9β1 was added and allowed to bind thereto in the presence of 1 mM MnCl2 or 10 mM EDTA.
To further narrow down the region responsible for binding to integrin α9β1, the extra 37-amino acid segment of CCP21 was divided into smaller segments, of which GST fusion proteins were produced. Microtiter plates were coated with eight kinds of segments including CCP21, pol-C and GST alone, and integrin α9β1 was added and allowed to bind thereto in the presence of 1 mM MnCl2 or 10 mM EDTA.
To identify the residues involved in binding to Integrin α9β1, alanine scanning mutants and N-terminal or C-terminal deletion mutants of D2634-L2645 were produced as GST fusion proteins. […]

hematopoietic stem cells = test: Proliferation of hematopoietic stem cells on coated plates; type: cell-based, mouse; settings: peptide 50 μM for 2 hours, then polydom-coated plate, FIG. 20
Protocol: Bone marrow cells were flushed out from the femurs and tibias of three mice of 6 to 7 weeks of age (C57BL/6J) and dissociated with a 22G needle. The cells were reacted with a biotin-labeled anti-lineage antibody for 30 minutes and subsequently with an anti-blotin antibody-conjugated magnetic beads, and lineage-positive cells were removed by automated magnetic cell sorter autoMACS (Miltenyi Biotec). After staining with PE-CD3, PE-Mac1, PE-Gr1, PE-Ter119, PE-B220, FTTC-Sca1 and APC-c-Kit, a lineage(−) Sca1(+) c-Kit (high) cell fraction was sorted out using FACSAria and used for the experiments described below.
The above-prepared cells were plated on a 48-well plate coated with a recombinant polydom protein or fibronectin. The same type of plate without coating was used as a control. The medium used was RPMI containing 10% fetal calf serum, thrombopoietin (30 ng/ml) and flt3 ligand (100 ng/ml). For the examination of cell proliferation, the cells were plated in duplicate wells for each coating at 1000 cells/well and started to be cultured, and the cell number was counted at the start of culture, and on day 2 and day 3. The remaining cells were divided into three aliquots, plated in wells for each coating, and subjected to FACS analysis on day 3 after the start of culture. For the FACS analysis, staining with an antibody cocktail containing PE-CD3, PE-Mac1, PE-Gr1, PE-Ter119, PE-B220, FITC-Sca1 and APC-c-Kit was performed and FACSCont was used.
The above-prepared cells were divided into three groups and plated on 48-well plates at 5000 cells/well. The medium used was RPMI containing 10% fetal calf serum, thrombopoietin (30 ng/ml) and flt3 ligand (100 ng/ml). For an EDDMMEVPY peptide treatment group, 2 μl of the peptide was added to each well at the final concentration of 50 μM, and for the other two groups, 2 μl of PBS was added to each well. Then, the culture was performed at […] for 2 hours. Subsequently, the cells were transferred to 48-well plates coated with a recombinant polydom protein or fibronectin. The cells cultured in the presence of the peptide were transferred to the recombinant polydom protein-coated plate, and the cells in one of the other two groups were transferred to the recombinant polydom protein-coated plate, and the cells in the remaining group were transferred to the fibronectin-coated plate. The culture was continued for 3 days and the cell numbers were counted on day 2, day 3 and […].

RD cells = test: Cell adhesion assay on coated plates (RD cells); type: cell-based, human; settings: for promotion of RD cell adhesion: coated 96-well plates, 37° C. for 30 minutes
Protocol: A cell adhesion assay was performed as described in Sato, Y. , Uemura, T., Morimitsu, K., Sato-Nishiuchi, R., Manabe, R., Takagi, J., Yamada, M., and Sekiguchi, K. (2009) J. Biol. Chem. 284, 14524-14536. For an assay involving blocking antibodies, RD cells (human rhabdomyosarcoma cells) were preincubated with monoclonal antibodies of interest at room temperature for 15 minutes and plated on 96-well plates coated with recombinant polydom proteins or fibronectin. The cells were incubated for 30 minutes, washed, fixed with 3.7% formaldehyde, and stained with 0.5% toluidine blue.
The cells were plated on 96-well plates coated with serial diluted concentrations of full-length polydom, pol-N, pol-C or plasma fibronectin (FN) and incubated at 37° C. for 30 minutes. After washing out unattached cells, attached cells were fixed and stained with toluidine blue. The attached cells were counted under a microscope. The assay was performed in triplicate.

[1] = molecular target: recombinant integrin α9β1 (human, UniProt Q13797 30-981; P05556 21-728); test: inhibition of integrin α9β1 (10 nM) binding to coated pol-C (10 nM) by synthetic peptide, 1 mM MnCl2, 10% DMSO
Chain of recombinant integrin α9β1 (Q13797 30-981, chain 1 of 2): as the sequence (Q13797 30-981 limits assumed) above
Chain of recombinant integrin α9β1 (P05556 21-728, chain 2 of 2): as the sequence (P05556 21-728 limits assumed) above
Protocol: To further corroborate the role of […] as the integrin α9β1 recognition sequence, an integrin α9β1-pol-C binding inhibition assay was performed using synthetic peptides consisting of the […] sequence or a part of the sequence, Integrin α9β1 (10 nM) was incubated on microtiter plates coated with pol-C (10 nM) in the presence of 1 mM MnCl₂ and various concentrations of the synthetic peptides. To prevent precipitation of the peptides, the assay was performed in the presence of 10% DMSO. Based on the amount of integrin α9β1 bound to pol-C set as 100%, the relative binding amount was calculated.

D2628-L2645: segment in the N-terminal region of D2628-S2664, GST fusion protein (DGQGHFDQEDDMMEVPYL; also: GST fusion protein)
binding of integrin α9β1 to smaller segments of D2628-S2664 (integrin α9β1; GST fusion proteins): bound

D2628-S2664: extra 37-amino acid segment of CCP21, GST fusion (DGQGHFDQEDDMMEVPYLAHPQHLEATAKALENTKES; also: GST fusion)
binding to integrin α9β1 (extra segment of CCP21) (integrin α9β1; GST fusion proteins, 1 mM MnCl2, FIG. 12): retained the binding activity

D2634-L2645: 12-amino acid segment in the extra segment of CCP21, GST fusion protein (DQEDDMMEVPYL; also: GST fusion protein)
binding of integrin α9β1 to smaller segments of D2628-S2664 (integrin α9β1; GST fusion proteins): bound

E2641A: alanine substitution of Glu2641 in D2634-L2645, GST fusion protein (DQEDDMMAVPYL; also: GST fusion protein)
integrin binding activity of alanine scanning mutants of D2634-L2645 (integrin α9β1; GST fusion proteins, FIG. 14): almost completely abrogated the integrin binding activity

EDDMMEVPY [EDDMMEVPY]
proliferation of hematopoietic stem cells on polydom-coated plate after peptide treatment (hematopoietic stem cells; listed as EDDMMEVPY peptide): proliferate albeit more slowly than the cells on the fibronectin-coated plate
proliferation of hematopoietic stem cells on polydom-coated plate after peptide treatment (hematopoietic stem cells; listed as peptide consisting of the amino acid sequence represented by SEQ ID NO: 1): canceled

pol-C: C-terminal fragment of polydom, residues 1192 to 3567 of SEQ ID NO: 2, C-terminal His tag
cell adhesion potency compared with full-length polydom (RD cells; FIG. 4): almost equivalent to that of full-length polydom
promotion of RD cell adhesion (RD cells; FIG. 4): capable of promoting cell adhesion
morphology of attached RD cells (RD cells; microscopic observation, FIG. 5): exhibited spread morphology
binding of recombinant integrin α9β1 to coated protein (integrin α9β1): bound
Kd (integrin α9β1; pol-C coated at 10 nM, 1 mM MnCl2, three independent determinations, read-out: dissociation constant between integrin α9β1 and ligand): 32.4 ± 2.7 nM

B1: EDDMMEVPY peptide (synthetic) (peptide)
peptide: EDDMMEVPY
notes: Corresponds to Glu2636-Tyr2644 of mouse SVEP1
IC50 [1]: 180 nM

B2: pol-N: N-terminal fragment of polydom, residues 18 to 789 of SEQ ID NO: 2, C-terminal His tag (protein, listed as Mus musculus)
chain: WTNFQPVAPSLNFSFRLFPEASPGALGRLAVPPASSEEEAAGSKVERLGRAFRSRVRRLRELSGSLELVFLVDESSSVGQTNFLNELKFVRKLLSDFPVVSTATRVAIVTFSSKNNVVARVDYISTSRAHQHKCALLSREIPAITYRGGGTYTKGAFQQAAQILRHSRENSTKVIFLITDGYSNGGDPRPIAASLRDFGVEIFTFGIWQGNIRELNDMASTPKEEHCYLLHSFEEFEALARRALHEDLPSGSFIQEDMARCSYLCEAGKDCCDRMASCKCGTHTGQFECICEKGYYGKGLQHECTACPSGTYKPEASPGGISTCIPCPDVSHTSPPGSTSPEDCVCREGYQRSGQTCEVVHCPALKPPENGFFIQNTCKNHFNAACGVRCRPGFDLVGSSIHLCQPNGLWSGTESFCRVRTCPHLRQPKHGHISCSTAEMSYNTLCLVTCNEGYRLEGSTRLTCQGNAQWDGPEPRCVERHCATFQKPKGVIISPPSCGKQPARPGMTCQLSCRQGYILSGVREVRCATSGKWSAKVQTAVCKDVEAPQISCPNDIEAKTGEQQDSANVTWQVPTAKDNSGEKVSVHVHPAFTPPYLFPIGDVAITYTATDSSGNQASCTFYIKVIDVEPPVIDWCRSPPPIQVVEKEHPASWDEPQFSDNSGAELVITSSHTQGDMFPHGETVVWYTATDPSGNNRTCDIHIVIKGSPCEVPFTPVNGDFICAQDSAGVNCSLSCKEGYDFTEGSTEKYYCAFEDGIWRPPYSTEWPDCAI
modifications: C-terminal His tag
promotion of RD cell adhesion (RD cells; FIG. 4): only pol-C was capable
binding of recombinant integrin α9β1 to coated protein (integrin α9β1): not

AEIDGIEL [AEIDGIEL peptide (integrin α9β1 recognition sequence in tenascin-C, synthetic)]
IC50 [1]: 7800 nM
